Paper PMC9482650, “Quantitative fragmentomics allow affinity mapping of interactomes” (Nature Communications, 2022)

T1: MPDZ_10, O75970
T1 sequence (O75970 1624-1722, limits assumed, looked up): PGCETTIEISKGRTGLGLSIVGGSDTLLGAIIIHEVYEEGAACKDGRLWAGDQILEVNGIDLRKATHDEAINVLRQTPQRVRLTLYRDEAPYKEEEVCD

T2: SNTA1, Q13424
T2 sequence (Q13424 82-180, limits assumed, looked up): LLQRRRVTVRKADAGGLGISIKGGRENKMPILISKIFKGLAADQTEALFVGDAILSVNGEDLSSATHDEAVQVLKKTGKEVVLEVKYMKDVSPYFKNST

T3: GRIP1_5, Q9Y3R0
T3 sequence (Q9Y3R0 568-668, limits assumed, looked up): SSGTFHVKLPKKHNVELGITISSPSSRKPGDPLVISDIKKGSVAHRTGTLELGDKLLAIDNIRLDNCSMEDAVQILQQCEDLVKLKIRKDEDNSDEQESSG

T4: LNX2_3, Q8N448
T4 sequence (Q8N448 463-564, limits assumed, looked up): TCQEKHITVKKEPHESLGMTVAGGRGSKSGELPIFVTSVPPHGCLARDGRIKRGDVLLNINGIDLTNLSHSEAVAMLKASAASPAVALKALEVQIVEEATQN

T5: DFNB31_3, Q9P202
T5 sequence (Q9P202 811-907, limits assumed, looked up): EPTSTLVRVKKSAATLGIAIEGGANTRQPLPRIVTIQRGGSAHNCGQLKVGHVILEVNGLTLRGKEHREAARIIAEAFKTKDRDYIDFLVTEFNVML

T6: RADIL, Q96JH8
T6 sequence (Q96JH8 971-1071, limits assumed, looked up): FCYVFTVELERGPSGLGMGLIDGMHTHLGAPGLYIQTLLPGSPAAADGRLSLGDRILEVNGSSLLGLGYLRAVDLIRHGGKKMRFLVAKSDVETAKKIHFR

T7: ARHGEF11, O15085
T7 sequence (O15085 42-136, limits assumed, looked up): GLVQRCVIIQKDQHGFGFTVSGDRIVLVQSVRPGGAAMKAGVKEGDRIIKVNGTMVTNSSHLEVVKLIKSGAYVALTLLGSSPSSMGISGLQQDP

T8: CARD11, Q9BXL7
T8 sequence (Q9BXL7 662-765, limits assumed, looked up): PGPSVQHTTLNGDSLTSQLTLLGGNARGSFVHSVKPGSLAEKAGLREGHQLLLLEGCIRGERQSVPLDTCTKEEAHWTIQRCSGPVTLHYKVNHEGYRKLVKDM

T9: NHERF3_1, Q5T2W1
T9 sequence (Q5T2W1 4-100, limits assumed, looked up): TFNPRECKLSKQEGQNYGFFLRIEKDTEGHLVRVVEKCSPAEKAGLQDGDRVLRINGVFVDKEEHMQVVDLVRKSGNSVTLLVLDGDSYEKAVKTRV

T10: GRIP1_3, Q9Y3R0
T10 sequence (Q9Y3R0 247-346, limits assumed, looked up): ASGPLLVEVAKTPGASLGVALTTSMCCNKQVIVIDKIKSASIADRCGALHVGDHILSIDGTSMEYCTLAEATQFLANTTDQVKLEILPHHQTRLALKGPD


Each binder was assayed against Inadl_4, Q8NI35 (assay: holdup assay). Conditions: plain residues with an end cap or a label only (N-terminal biotin on a linker: ado-ado).
Design: key: below the threshold = too weak to quantify, mostly under pKd 3.1 to 4

Chain of Inadl_4, Q8NI35 (Q8NI35 547-651): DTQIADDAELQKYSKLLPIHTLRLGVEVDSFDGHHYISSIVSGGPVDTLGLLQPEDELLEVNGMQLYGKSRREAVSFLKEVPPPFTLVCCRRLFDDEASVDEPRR

pKd | Binder
below the threshold | SRPRPDDLEI [GJA1, P17302]
below the threshold | TMQMSLKDLL [GLA, P06280]

Each binder was assayed against T1, MPDZ_10, O75970 (assay: holdup assay). Conditions: plain residues with an end cap or a label only (N-terminal biotin on a linker: ado-ado).
Design: key: below the threshold = too weak to quantify, mostly under pKd 3.1 to 4

pKd | Binder
below the threshold | SRPRPDDLEI [GJA1, P17302]
below the threshold | TMQMSLKDLL [GLA, P06280]

These binders were tested against MAGI3_2, Q5TCQ9 (assay: holdup assay). Conditions: plain residues with an end cap or a label only (N-terminal biotin on a linker: ado-ado).
Design: key: below the threshold = too weak to quantify, mostly under pKd 3.1 to 4

Chain of MAGI3_2, Q5TCQ9 (Q5TCQ9 398-503): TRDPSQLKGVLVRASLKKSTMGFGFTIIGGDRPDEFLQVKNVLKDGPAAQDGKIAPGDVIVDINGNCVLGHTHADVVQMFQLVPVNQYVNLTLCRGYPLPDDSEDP

pKd | Binder
below the threshold | SRPRPDDLEI [GJA1, P17302]
below the threshold | TMQMSLKDLL [GLA, P06280]

Each binder was assayed against PTPN3, P26045 (assay: holdup assay). Conditions: plain residues with an end cap or a label only (N-terminal biotin on a linker: ado-ado).
Design: key: below the threshold = too weak to quantify, mostly under pKd 3.1 to 4

Chain of PTPN3, P26045 (P26045 505-587): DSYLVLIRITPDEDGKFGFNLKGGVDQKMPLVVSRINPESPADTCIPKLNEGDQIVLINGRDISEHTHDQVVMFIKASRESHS

pKd | Binder
below the threshold | SRPRPDDLEI [GJA1, P17302]
4.07 | TMQMSLKDLL [GLA, P06280]

These binders were tested against Inadl_1, Q8NI35 (assay: holdup assay). Conditions: plain residues with an end cap or a label only (N-terminal biotin on a linker: ado-ado).
Design: key: below the threshold = too weak to quantify, mostly under pKd 3.1 to 4

Chain of Inadl_1, Q8NI35 (Q8NI35 113-229): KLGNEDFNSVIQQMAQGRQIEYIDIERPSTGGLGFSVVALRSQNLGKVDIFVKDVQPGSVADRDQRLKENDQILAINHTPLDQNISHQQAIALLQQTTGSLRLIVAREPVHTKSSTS

pKd | Binder
below the threshold | SRPRPDDLEI [GJA1, P17302]
below the threshold | TMQMSLKDLL [GLA, P06280]

What follows are binders tested against T2, SNTA1, Q13424 (assay: holdup assay). Conditions: plain residues with an end cap or a label only (N-terminal biotin on a linker: ado-ado).
Design: key: below the threshold = too weak to quantify, mostly under pKd 3.1 to 4

pKd | Binder
below the threshold | SRPRPDDLEI [GJA1, P17302]
below the threshold | TMQMSLKDLL [GLA, P06280]

These binders were tested against MAGI2_2, Q86UL8 (assay: holdup assay). Conditions: plain residues with an end cap or a label only (N-terminal biotin on a linker: ado-ado).
Design: key: below the threshold = too weak to quantify, mostly under pKd 3.1 to 4

Chain of MAGI2_2, Q86UL8 (Q86UL8 410-522): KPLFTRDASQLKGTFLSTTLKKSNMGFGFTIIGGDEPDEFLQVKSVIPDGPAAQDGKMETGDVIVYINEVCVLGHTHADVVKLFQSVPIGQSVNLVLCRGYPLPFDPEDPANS

pKd | Binder
below the threshold | SRPRPDDLEI [GJA1, P17302]
below the threshold | TMQMSLKDLL [GLA, P06280]

Each binder was assayed against GRIP2_3, Q9C0E4 (assay: holdup assay). Conditions: plain residues with an end cap or a label only (N-terminal biotin on a linker: ado-ado).
Design: key: below the threshold = too weak to quantify, mostly under pKd 3.1 to 4

Chain of GRIP2_3, Q9C0E4 (Q9C0E4 238-339): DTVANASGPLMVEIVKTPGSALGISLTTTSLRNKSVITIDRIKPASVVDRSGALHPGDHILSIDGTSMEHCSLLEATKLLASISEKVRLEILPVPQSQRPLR

pKd | Binder
below the threshold | SRPRPDDLEI [GJA1, P17302]
below the threshold | TMQMSLKDLL [GLA, P06280]

What follows are binders tested against MAGI2_5, Q86UL8 (assay: holdup assay). Conditions: plain residues with an end cap or a label only (N-terminal biotin on a linker: ado-ado).
Design: key: below the threshold = too weak to quantify, mostly under pKd 3.1 to 4

Chain of MAGI2_5, Q86UL8 (Q86UL8 915-1017): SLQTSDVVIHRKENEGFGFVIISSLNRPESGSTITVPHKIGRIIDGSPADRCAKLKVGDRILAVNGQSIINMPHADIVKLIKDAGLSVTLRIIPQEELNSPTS

pKd | Binder
below the threshold | SRPRPDDLEI [GJA1, P17302]
below the threshold | TMQMSLKDLL [GLA, P06280]

Each binder was assayed against T3, GRIP1_5, Q9Y3R0 (assay: holdup assay). Conditions: plain residues with an end cap or a label only (N-terminal biotin on a linker: ado-ado).
Design: key: below the threshold = too weak to quantify, mostly under pKd 3.1 to 4

pKd | Binder
below the threshold | SRPRPDDLEI [GJA1, P17302]
3.51 | TMQMSLKDLL [GLA, P06280]

The binders below were run against T4, LNX2_3, Q8N448 (assay: holdup assay). Conditions: plain residues with an end cap or a label only (N-terminal biotin on a linker: ado-ado).
Design: key: below the threshold = too weak to quantify, mostly under pKd 3.1 to 4

pKd | Binder
below the threshold | SRPRPDDLEI [GJA1, P17302]
below the threshold | TMQMSLKDLL [GLA, P06280]

The binders below were run against DLG1_2, Q12959 (assay: holdup assay). Conditions: plain residues with an end cap or a label only (N-terminal biotin on a linker: ado-ado).
Design: key: below the threshold = too weak to quantify, mostly under pKd 3.1 to 4

Chain of DLG1_2, Q12959 (Q12959 314-412): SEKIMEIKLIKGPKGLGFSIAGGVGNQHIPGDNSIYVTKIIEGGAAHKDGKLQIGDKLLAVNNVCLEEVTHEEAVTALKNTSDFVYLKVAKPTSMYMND

pKd | Binder
below the threshold | SRPRPDDLEI [GJA1, P17302]
below the threshold | TMQMSLKDLL [GLA, P06280]

What follows are binders tested against NHERF4_2, Q86UT5 (assay: holdup assay). Conditions: plain residues with an end cap or a label only (N-terminal biotin on a linker: ado-ado).
Design: key: below the threshold = too weak to quantify, mostly under pKd 3.1 to 4

Chain of NHERF4_2, Q86UT5 (Q86UT5 220-308): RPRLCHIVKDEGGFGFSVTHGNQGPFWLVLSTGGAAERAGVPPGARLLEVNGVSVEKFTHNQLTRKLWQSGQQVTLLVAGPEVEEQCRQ

pKd | Binder
below the threshold | SRPRPDDLEI [GJA1, P17302]
below the threshold | TMQMSLKDLL [GLA, P06280]

The binders below were run against T5, DFNB31_3, Q9P202 (assay: holdup assay). Conditions: plain residues with an end cap or a label only (N-terminal biotin on a linker: ado-ado).
Design: key: below the threshold = too weak to quantify, mostly under pKd 3.1 to 4

pKd | Binder
below the threshold | SRPRPDDLEI [GJA1, P17302]
4.07 | TMQMSLKDLL [GLA, P06280]

What follows are binders tested against GORASP1, Q9BQQ3 (assay: holdup assay). Conditions: plain residues with an end cap or a label only (N-terminal biotin on a linker: ado-ado).
Design: key: below the threshold = too weak to quantify, mostly under pKd 3.1 to 4

Chain of GORASP1, Q9BQQ3 (Q9BQQ3 1-208): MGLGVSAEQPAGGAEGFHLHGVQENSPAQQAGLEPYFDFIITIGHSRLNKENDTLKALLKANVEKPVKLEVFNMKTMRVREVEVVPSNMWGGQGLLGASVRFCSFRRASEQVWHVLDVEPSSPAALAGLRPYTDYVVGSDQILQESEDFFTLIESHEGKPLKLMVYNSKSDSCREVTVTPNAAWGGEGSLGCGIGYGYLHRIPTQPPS

pKd | Binder
below the threshold | SRPRPDDLEI [GJA1, P17302]
3.61 | TMQMSLKDLL [GLA, P06280]

Each binder was assayed against T6, RADIL, Q96JH8 (assay: holdup assay). Conditions: plain residues with an end cap or a label only (N-terminal biotin on a linker: ado-ado).
Design: key: below the threshold = too weak to quantify, mostly under pKd 3.1 to 4

pKd | Binder
below the threshold | SRPRPDDLEI [GJA1, P17302]
below the threshold | TMQMSLKDLL [GLA, P06280]

Each binder was assayed against T7, ARHGEF11, O15085 (assay: holdup assay). Conditions: plain residues with an end cap or a label only (N-terminal biotin on a linker: ado-ado).
Design: key: below the threshold = too weak to quantify, mostly under pKd 3.1 to 4

pKd | Binder
below the threshold | SRPRPDDLEI [GJA1, P17302]
3.99 | TMQMSLKDLL [GLA, P06280]

Each binder was assayed against DLG2_3, Q15700 (assay: holdup assay). Conditions: plain residues with an end cap or a label only (N-terminal biotin on a linker: ado-ado).
Design: key: below the threshold = too weak to quantify, mostly under pKd 3.1 to 4

pKd | Binder
below the threshold | SRPRPDDLEI [GJA1, P17302]
3.52 | TMQMSLKDLL [GLA, P06280]

Each binder was assayed against MAGI2_6, Q86UL8 (assay: holdup assay). Conditions: plain residues with an end cap or a label only (N-terminal biotin on a linker: ado-ado).
Design: key: below the threshold = too weak to quantify, mostly under pKd 3.1 to 4

Chain of MAGI2_6, Q86UL8 (Q86UL8 1141-1229): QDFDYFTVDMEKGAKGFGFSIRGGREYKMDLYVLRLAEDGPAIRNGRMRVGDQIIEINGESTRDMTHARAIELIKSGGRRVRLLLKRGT

pKd | Binder
below the threshold | SRPRPDDLEI [GJA1, P17302]
below the threshold | TMQMSLKDLL [GLA, P06280]

The binders below were run against FRMPD2_2, Q68DX3 (assay: holdup assay). Conditions: plain residues with an end cap or a label only (N-terminal biotin on a linker: ado-ado).
Design: key: below the threshold = too weak to quantify, mostly under pKd 3.1 to 4

Chain of FRMPD2_2, Q68DX3 (Q68DX3 944-1038): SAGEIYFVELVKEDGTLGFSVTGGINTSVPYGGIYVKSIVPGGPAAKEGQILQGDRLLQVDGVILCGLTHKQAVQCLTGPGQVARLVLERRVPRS

pKd | Binder
below the threshold | SRPRPDDLEI [GJA1, P17302]
below the threshold | TMQMSLKDLL [GLA, P06280]

These binders were tested against T8, CARD11, Q9BXL7 (assay: holdup assay). Conditions: plain residues with an end cap or a label only (N-terminal biotin on a linker: ado-ado).
Design: key: below the threshold = too weak to quantify, mostly under pKd 3.1 to 4

pKd | Binder
below the threshold | SRPRPDDLEI [GJA1, P17302]
below the threshold | TMQMSLKDLL [GLA, P06280]

What follows are binders tested against T9, NHERF3_1, Q5T2W1 (assay: holdup assay). Conditions: plain residues with an end cap or a label only (N-terminal biotin on a linker: ado-ado).
Design: key: below the threshold = too weak to quantify, mostly under pKd 3.1 to 4

pKd | Binder
below the threshold | SRPRPDDLEI [GJA1, P17302]
4.34 | TMQMSLKDLL [GLA, P06280]

What follows are binders tested against HTRA2, O43464 (assay: holdup assay). Conditions: plain residues with an end cap or a label only (N-terminal biotin on a linker: ado-ado).
Design: key: below the threshold = too weak to quantify, mostly under pKd 3.1 to 4

Chain of HTRA2, O43464 (O43464 355-458): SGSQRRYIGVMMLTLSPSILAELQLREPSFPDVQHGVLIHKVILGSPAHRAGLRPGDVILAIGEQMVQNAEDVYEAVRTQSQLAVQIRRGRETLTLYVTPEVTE

pKd | Binder
below the threshold | SRPRPDDLEI [GJA1, P17302]
below the threshold | TMQMSLKDLL [GLA, P06280]

What follows are binders tested against DLG1_3, Q12959 (assay: holdup assay). Conditions: plain residues with an end cap or a label only (N-terminal biotin on a linker: ado-ado).
Design: key: below the threshold = too weak to quantify, mostly under pKd 3.1 to 4

Chain of DLG1_3, Q12959 (Q12959 457-571): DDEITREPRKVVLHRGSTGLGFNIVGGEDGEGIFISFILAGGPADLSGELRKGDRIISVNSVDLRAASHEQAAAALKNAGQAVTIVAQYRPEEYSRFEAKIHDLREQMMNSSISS

pKd | Binder
below the threshold | SRPRPDDLEI [GJA1, P17302]
below the threshold | TMQMSLKDLL [GLA, P06280]

Each binder was assayed against GRIP2_5, Q9C0E4 (assay: holdup assay). Conditions: plain residues with an end cap or a label only (N-terminal biotin on a linker: ado-ado).
Design: key: below the threshold = too weak to quantify, mostly under pKd 3.1 to 4

Chain of GRIP2_5, Q9C0E4 (Q9C0E4 544-642): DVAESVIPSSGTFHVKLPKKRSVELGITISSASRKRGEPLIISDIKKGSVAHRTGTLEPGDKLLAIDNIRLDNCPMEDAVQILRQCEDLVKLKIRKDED

pKd | Binder
below the threshold | SRPRPDDLEI [GJA1, P17302]
3.51 | TMQMSLKDLL [GLA, P06280]

Each binder was assayed against SCRIB_3, Q14160 (assay: holdup assay). Conditions: plain residues with an end cap or a label only (N-terminal biotin on a linker: ado-ado).
Design: key: below the threshold = too weak to quantify, mostly under pKd 3.1 to 4

Chain of SCRIB_3, Q14160 (Q14160 999-1103): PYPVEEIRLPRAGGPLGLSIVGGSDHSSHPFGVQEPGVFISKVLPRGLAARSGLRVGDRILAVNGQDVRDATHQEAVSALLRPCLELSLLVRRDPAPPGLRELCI

pKd | Binder
below the threshold | SRPRPDDLEI [GJA1, P17302]
below the threshold | TMQMSLKDLL [GLA, P06280]

These binders were tested against T10, GRIP1_3, Q9Y3R0 (assay: holdup assay). Conditions: plain residues with an end cap or a label only (N-terminal biotin on a linker: ado-ado).
Design: key: below the threshold = too weak to quantify, mostly under pKd 3.1 to 4

pKd | Binder
below the threshold | SRPRPDDLEI [GJA1, P17302]
below the threshold | TMQMSLKDLL [GLA, P06280]
